In US20140294819A1 (NVIP, published 2014):

T1: feline CD20 cyclised peptide SEQ ID NO:4 (feline, cyclised by a disulphide bond between the two cysteine residues)
T1 construct: also called feline CD20 peptide
T1 peptide: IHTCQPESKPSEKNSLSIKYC

T2: human CD20 cyclic (oxidised) peptide SEQ ID NO:3 (human, disulphide bond between the two cysteine residues; biotinylated)
T2 construct: also called H20; human CD20 cyclic peptide
T2 peptide: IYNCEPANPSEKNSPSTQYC

T3: murine CD20 cyclic (oxidised) peptide SEQ ID NO:6 (murine, disulphide bond between the two cysteine residues; biotinylated)
T3 construct: also called M20; mouse CD20 peptide
T3 peptide: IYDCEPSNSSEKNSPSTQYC

T4: canine CD20 cyclic (oxidised, disulphide-bonded) peptide SEQ ID NO:2 (canine, disulphide bond between the two cysteine residues (corresponding to positions 167 and 183); N-terminal biotin in the streptavidin-plate assays)
T4 construct: Chemically synthesised and oxidised; also called C20; caCD20 peptide
T4 peptide: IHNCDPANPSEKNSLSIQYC


How the values were obtained:
[1] = molecular target: canine CD20 cyclic (oxidised, disulphide-bonded) peptide SEQ ID NO:2 (canine); experiment: ELISA, biotinylated oxidised peptide on streptavidin plate; conditions: scale: fold of the binding to human CD20 peptide
[2] = molecular target: T1, feline CD20 cyclised peptide SEQ ID NO:4; experiment: ELISA, purified recombinant antibody on cyclic CD20 peptide
Excerpt: (§1) The RA2 and RF2 variable heavy and light chain sequences (SEQ ID NO:23-26) were rebuilt as IgG2a/kappa antibodies by oligonucleotide-based gene synthesis, cloned into pcDNA3.3 vectors and co-expressed in appropriate pairs in CHO cells. The supernatant expressed antibodies were purified by Protein A chromatography and tested for binding by CD20 peptide ELISA (FIG. 11). Both purified recombinant forms of mouse RA2 and RF2 bound strongly to cyclic canine and feline CD20 peptides, and also to mouse and human CD20 peptides (the binding of RA2 to human CD20 peptide was more pronounced than with the corresponding hybridoma supernatant in FIG. 9).

[3] = molecular target: T2, human CD20 cyclic (oxidised) peptide …; experiment: as above
Excerpt: as §1

[4] = molecular target: T3, murine CD20 cyclic (oxidised) peptide …; experiment: as above
Excerpt: as §1

[5] = molecular target: T4, canine CD20 cyclic (oxidised, …); experiment: as above
Excerpt: as §1

[6] = molecular target: T1, feline CD20 cyclised peptide SEQ ID NO:4; experiment: ELISA, hybridoma antibody on cyclic CD20 peptide
Excerpt: (§2) Using a combination of cyclic human (SEQ ID NO:3) and canine (SEQ ID NO:2) CD20 peptides, monoclonal antibodies that would bind both human and canine peptides were screened for using conventional hybridoma screening of mice previously immunised with the cyclic canine CD20 peptide of FIG. 1, coupled to diphtheria toxoid at the amino terminus as a source of T-cell help. Two antibody hybridomas were selected, RA2 and RF2 and tested for binding to these as well as to murine (SEQ ID NO:6) and feline (SEQ ID NO:4) CD20 peptides. RA2 and RF2 bound strongly to canine CD20 and RF2 bound strongly to human CD20 peptide whereas RA2 binds more weakly. Unexpectedly RA2 and RF2 bound strongly to feline and also murine CD20 peptides.

[7] = molecular target: T2, human CD20 cyclic (oxidised) peptide …; experiment: ELISA, hybridoma antibody on cyclic CD20 peptide
Excerpt: as §2

[8] = molecular target: T3, murine CD20 cyclic (oxidised) peptide …; experiment: ELISA, hybridoma antibody on cyclic CD20 peptide
Excerpt: as §2

[9] = molecular target: T4, canine CD20 cyclic (oxidised, …); experiment: ELISA, hybridoma antibody on cyclic CD20 peptide
Excerpt: as §2

Row | binding relative to the binding to human CD20 peptide [1] | binding result [2] | binding result [3] | binding result [4] | binding result [5] | binding result [6] | binding result [7] | binding result [8] | binding result [9] | Molecule
1 | 0.167 |  |  |  |  |  |  |  |  | B1-H299 (Beckmann Coulter) murine Type II anti-human CD20 monoclonal antibody
2 |  | binds | binds | binds | binds |  |  |  |  | recombinant mouse RA2 (IgG2a/kappa) (antibody, also called muRA2) heavy: QVQLKQSGPGLVPPSQSLSITCTVSGFSLTNYGVHWVRQSPGKGLEWLGVIWSGGTTDYNAAFISRLSISKDNSKSQVFFKMNSLQADDTAIYYCARGPRKFYYYGMDYWGQGTSVTVSSAKTTAPSVYPLAPVCGDTTGSSVTLGCLVKGYFPEPVTLTWNSGSLSSGVHTFPAVLQSDLYTLSSSVTVTSSTWPSQSITCNVAHPASSTKVDKKIEPRGPTIKPCPPCKCPAPNLLGGPSVFIFPPKIKDVLMISLSPIVTCVVVDVSEDDPDVQISWFVNNVEVHTAQTQTHREDYNSTLRVVSALPIQHQDWMSGKEFKCKVNNKDLPAPIERTISKPKGSVRAPQVYVLPPPEEEMTKKQVTLTCMVTDFMPEDIYVEWTNNGKTELNYKNTEPVLDSDGSYFMYSKLRVEKKNWVERNSYSCSVVHEGLHNHHTTKSFSRTPGK light: DVLMTQTPLSLPVSLGDQASISCRSSQSIVHSNGNTYLEWYLQKPGQSPKLLIYKVSNRFSGVPDRFSGSGSGTDFTLKISRVEAGDLGVYYCFQGLHVPLTFGAGTRLELKRADAAPTVSIFPPSSEQLTSGGASVVCFLNNFYPKDINVKWKIDGSERQNGVLNSWTDQDSKDSTYSMSSTLTLTKDEYERHNSYTCEATHKTSTSPIVKSFNRNEC
3 |  | binds | binds | binds | binds |  |  |  |  | recombinant mouse RF2 (IgG2a/kappa) (antibody, also called muRF2; mouse IgG2a variant of RF2) heavy: QVQLKQSGPGLVPPSQSLSITCTISGFSLTSYGVHWVRQSPGWGLEWLGVIWSGGSIDYNAAFISRLSISKDNSKSQVFIKMNSLQADDTAIYYCARGPRKFYYFGMDYWGQGTSVTVSSAKTTAPSVYPLAPVCGDTTGSSVTLGCLVKGYFPEPVTLTWNSGSLSSGVHTFPAVLQSDLYTLSSSVTVTSSTWPSQSITCNVAHPASSTKVDKKIEPRGPTIKPCPPCKCPAPNLLGGPSVFIFPPKIKDVLMISLSPIVTCVVVDVSEDDPDVQISWFVNNVEVHTAQTQTHREDYNSTLRVVSALPIQHQDWMSGKEFKCKVNNKDLPAPIERTISKPKGSVRAPQVYVLPPPEEEMTKKQVTLTCMVTDFMPEDIYVEWTNNGKTELNYKNTEPVLDSDGSYFMYSKLRVEKKNWVERNSYSCSVVHEGLHNHHTTKSFSRTPGK light: DVVMTQTPLSLPVSLGDQASISCRSSQNIVHSNGNTYVEWYLQKPGQSPKLLIYKVSNRFSGVPDRFSGSGSGTDFTLKISRVEAEDLGVYYCFQGSHVPLTFGAGTKLELKRADAAPTVSIFPPSSEQLTSGGASVVCFLNNFYPKDINVKWKIDGSERQNGVLNSWTDQDSKDSTYSMSSTLTLTKDEYERHNSYTCEATHKTSTSPIVKSFNRNEC
4 |  |  |  |  |  | binds | binds | binds | binds | RA2 murine monoclonal antibody (hybridoma) (antibody, V domains shown, Hybridoma supernatant; also called muRA2) VH: QVQLKQSGPGLVPPSQSLSITCTVSGFSLTNYGVHWVRQSPGKGLEWLGVIWSGGTTDYNAAFISRLSISKDNSKSQVFFKMNSLQADDTAIYYCARGPRKFYYYGMDYWGQGTSVTVSS VL: DVLMTQTPLSLPVSLGDQASISCRSSQSIVHSNGNTYLEWYLQKPGQSPKLLIYKVSNRFSGVPDRFSGSGSGTDFTLKISRVEAGDLGVYYCFQGLHVPLTFGAGTRLELK
5 |  |  |  |  |  | binds | binds | binds | binds | RF2 murine monoclonal antibody (hybridoma) (antibody, V domains shown, Hybridoma supernatant; also called muRF2) VH: QVQLKQSGPGLVPPSQSLSITCTISGFSLTSYGVHWVRQSPGWGLEWLGVIWSGGSIDYNAAFISRLSISKDNSKSQVFIKMNSLQADDTAIYYCARGPRKFYYFGMDYWGQGTSVTVSS VL: DVVMTQTPLSLPVSLGDQASISCRSSQNIVHSNGNTYVEWYLQKPGQSPKLLIYKVSNRFSGVPDRFSGSGSGTDFTLKISRVEAEDLGVYYCFQGSHVPLTFGAGTKLELK
